# Data taken from publication PMC3267046.
# B1: (Nocardia farcinica IFM 10152) (protein)
# chain: MRMSSTGEYVPSPSEWIGNQVAQYEASDGAEAGEFDGRPLVILTTVGRKTGALRKTPVMRVEHDGRYAVVASQGGAPTHPAWYFNLVADPRAQLRDKDAVLSVVARELAGPERAEWWERAVRAYPTYQEYQDNTRRLIPVLLLEPGR
# Substrate: O=[N+]([O-])c1cn2c(n1)OC[C@@H](OCc1ccc(OC(F)(F)F)cc1)C2
# Assay: purified protein
# Format: biochemical, Nocardia farcinica
protein,measurement,value
B1,Km,21.9 µM
same,kcat,0.33 ± 0.08 s⁻¹
same,kcat/Km,16000 ± 2000 M⁻¹ s⁻¹
